Measurements published in US20180238866A1 (University of California, published 2018).
Where no end group is shown, it is not given here.

B1: Fibrinogen γ-chain C-terminal domain that lacks residues 400-411 (γC399tr) (ligand, UniProt P02679 177-425, looked up)
chain: KDCQDIANKGAKQSGLYFIKPLKANQQFLVYCEIDGSGNGWTVFQKRLDGSVDFKKNWIQYKEGFGHLSPTGTTEFWLGNEKIHLISTQSAIPYALRVELEDWNGRTSTADYAMFKVGPEADKYRLTYAYFAGGDAGDAFDGFDFGDDPSDKFFTSHNGMQFSTWDNDNDKFEGNCAEQDGSGWWMNKCHAGHLNGVYYQGGTYSKASTPNGYDNGIIWATWKTRWYSMKKTTMKIIPFNRLTIGEGQQ
modifications: FITC-labeled in the flow cytometry assays
notes: domain: Fibrinogen γ-chain C-terminal domain that lacks residues 400-411
B2: scrambled site 2 peptide of β3 (S2-β3scr), GST fusion (peptide)
chain: HHHHHHVHDSHYSGQGAMSDNTNSPQT
modifications: also: GST fusion protein, GST not in chain
notes: Control peptide; also called scrambled S2-β3 peptide; scrambled β3 peptide; not shown: glutathione S-transferase (GST) from vector pGEX-2T
B3: rat fibronectin type III domains 8-11 (FN8-11), GST fusion protein (ligand)
chain: not shown
modifications: FITC-labeled in the flow cytometry assays
notes: domain: Fibronectin type III domains 8-11; also called RGD-containing fibronectin fragment; not shown: glutathione S-transferase (GST) fusion partner
B4: secreted phospholipase A2 type IIA (sPLA2-IIA), wild type, recombinant (enzyme)
chain: NLVNFHRMIKLTTGKEAALSYGFYGCHCGVGGRGSPKDATDRCCVTHDCCYKRLEKRGCGTKFLSYKFSNSGSRITCAKQDSCRSQLCECDKAAATCFARNKTTYNKKYQYYSNKHCRGSTPRC
modifications: FITC-labeled in the flow cytometry binding assays of FIG. 7a-b ; FITC-labelled in the flow cytometry binding assays (FIG. 7a-b).
notes: PDB 1DCY was used for it in the docking simulation; also called WT sPLA2-IIA; sPLA-IIA
B5: disintegrin domain of human ADAM15, GST fusion protein (ligand)
chain: not shown
modifications: FITC-labeled in the flow cytometry assays
notes: domain: disintegrin domain; also called ADAM15 disintegrin domain; not shown: glutathione S-transferase (GST) fusion partner

Columns and labels:
[1] = target: T1, recombinant soluble integrin αvβ3 (UniProt P06756 31-992; P05106 27-718, limits assumed); test: ELISA-type: soluble αvβ3 (5 µg/ml) on immobilized γC399tr, 1 mM Ca2+, with sPLA2-IIA; bound αvβ3 detected with anti-β3 mAb AV-10
T1 construct: also called soluble αvβ3
Description: Remaining protein binding sites were blocked by incubating with PBS/0.1% BSA for 30 min at room temperature.

[2] = target: T2, integrin αvβ3 on the cell surface of U937 cells and of K562 cells that express human integrin αvβ3 (human, UniProt P06756 31-1048; P05106 27-788); test: flow cytometry, FITC-γC399tr on U937 and αvβ3-K562 cells with sPLA2-IIA (20 µg/ml) and Cmpd21
T2 construct: whole, on cells; Two cell types carry the same human integrin; also called αvβ3 on U937; αvβ3-K562
T2 sequence (P06756 31-1048, chain 1 of 2): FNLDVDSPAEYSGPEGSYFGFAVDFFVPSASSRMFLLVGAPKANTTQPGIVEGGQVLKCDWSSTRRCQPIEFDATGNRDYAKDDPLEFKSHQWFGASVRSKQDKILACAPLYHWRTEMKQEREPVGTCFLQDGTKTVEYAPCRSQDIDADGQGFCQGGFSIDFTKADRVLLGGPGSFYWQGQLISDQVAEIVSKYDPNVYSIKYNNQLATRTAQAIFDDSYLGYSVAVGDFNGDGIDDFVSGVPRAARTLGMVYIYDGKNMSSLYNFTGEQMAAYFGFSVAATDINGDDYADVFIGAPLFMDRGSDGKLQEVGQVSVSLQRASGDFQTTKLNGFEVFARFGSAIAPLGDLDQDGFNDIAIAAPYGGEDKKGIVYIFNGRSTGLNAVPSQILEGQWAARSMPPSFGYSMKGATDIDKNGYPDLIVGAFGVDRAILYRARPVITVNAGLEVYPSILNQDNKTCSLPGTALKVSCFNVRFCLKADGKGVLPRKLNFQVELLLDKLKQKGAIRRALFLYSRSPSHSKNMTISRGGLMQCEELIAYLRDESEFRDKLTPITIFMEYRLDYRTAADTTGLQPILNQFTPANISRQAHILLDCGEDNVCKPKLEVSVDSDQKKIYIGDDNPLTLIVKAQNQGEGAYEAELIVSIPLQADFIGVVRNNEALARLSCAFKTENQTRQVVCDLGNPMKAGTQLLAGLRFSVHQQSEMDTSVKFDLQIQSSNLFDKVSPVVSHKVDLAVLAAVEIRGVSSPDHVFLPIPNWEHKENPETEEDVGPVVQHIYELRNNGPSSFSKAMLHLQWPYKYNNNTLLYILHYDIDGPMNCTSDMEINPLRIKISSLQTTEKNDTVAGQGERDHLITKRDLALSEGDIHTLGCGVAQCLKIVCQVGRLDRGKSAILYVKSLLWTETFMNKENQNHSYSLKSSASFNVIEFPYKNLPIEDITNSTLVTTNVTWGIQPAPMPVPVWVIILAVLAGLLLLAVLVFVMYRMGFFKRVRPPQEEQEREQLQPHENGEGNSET
T2 sequence (P05106 27-788, chain 2 of 2): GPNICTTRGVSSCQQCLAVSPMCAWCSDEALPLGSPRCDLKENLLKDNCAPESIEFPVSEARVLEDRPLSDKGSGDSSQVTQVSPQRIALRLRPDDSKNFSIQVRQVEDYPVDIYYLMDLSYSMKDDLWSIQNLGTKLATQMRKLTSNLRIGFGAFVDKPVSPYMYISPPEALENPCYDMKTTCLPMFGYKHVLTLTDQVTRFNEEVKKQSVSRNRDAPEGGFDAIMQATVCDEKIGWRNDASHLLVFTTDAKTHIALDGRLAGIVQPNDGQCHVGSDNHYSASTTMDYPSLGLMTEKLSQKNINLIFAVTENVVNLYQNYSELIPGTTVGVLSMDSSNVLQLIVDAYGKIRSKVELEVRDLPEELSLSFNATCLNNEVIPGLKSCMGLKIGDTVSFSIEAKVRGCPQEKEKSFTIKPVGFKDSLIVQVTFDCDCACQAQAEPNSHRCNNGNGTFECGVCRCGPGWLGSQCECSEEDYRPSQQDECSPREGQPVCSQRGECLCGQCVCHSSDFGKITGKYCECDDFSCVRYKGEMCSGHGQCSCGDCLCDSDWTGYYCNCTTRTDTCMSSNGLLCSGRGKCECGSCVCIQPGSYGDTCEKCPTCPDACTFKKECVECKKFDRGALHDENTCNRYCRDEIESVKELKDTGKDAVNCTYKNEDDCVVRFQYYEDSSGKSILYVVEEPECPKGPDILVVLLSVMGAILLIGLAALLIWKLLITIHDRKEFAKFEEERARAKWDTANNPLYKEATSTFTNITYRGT
Excerpt: (§1) The cells were washed with PBS/0.02% BSA and analyzed by FACSCalibur (Becton Dickinson, Mountain View, Calif.).

[3] = target: B4; test: ELISA-type: GST-tagged peptide on immobilized sPLA2-IIA, anti-GST-HRP
[4] = target: T3, integrin α5β1 on K562 cells and U937 cells (UniProt P08648 42-1049; P05556 21-798, limits assumed); test: flow cytometry, FITC-FN8-11 on U937 and K562 cells, with sPLA2-IIA
T3 construct: whole, on cells
T3 sequence (P08648 42-1049 limits assumed, chain 1 of 2): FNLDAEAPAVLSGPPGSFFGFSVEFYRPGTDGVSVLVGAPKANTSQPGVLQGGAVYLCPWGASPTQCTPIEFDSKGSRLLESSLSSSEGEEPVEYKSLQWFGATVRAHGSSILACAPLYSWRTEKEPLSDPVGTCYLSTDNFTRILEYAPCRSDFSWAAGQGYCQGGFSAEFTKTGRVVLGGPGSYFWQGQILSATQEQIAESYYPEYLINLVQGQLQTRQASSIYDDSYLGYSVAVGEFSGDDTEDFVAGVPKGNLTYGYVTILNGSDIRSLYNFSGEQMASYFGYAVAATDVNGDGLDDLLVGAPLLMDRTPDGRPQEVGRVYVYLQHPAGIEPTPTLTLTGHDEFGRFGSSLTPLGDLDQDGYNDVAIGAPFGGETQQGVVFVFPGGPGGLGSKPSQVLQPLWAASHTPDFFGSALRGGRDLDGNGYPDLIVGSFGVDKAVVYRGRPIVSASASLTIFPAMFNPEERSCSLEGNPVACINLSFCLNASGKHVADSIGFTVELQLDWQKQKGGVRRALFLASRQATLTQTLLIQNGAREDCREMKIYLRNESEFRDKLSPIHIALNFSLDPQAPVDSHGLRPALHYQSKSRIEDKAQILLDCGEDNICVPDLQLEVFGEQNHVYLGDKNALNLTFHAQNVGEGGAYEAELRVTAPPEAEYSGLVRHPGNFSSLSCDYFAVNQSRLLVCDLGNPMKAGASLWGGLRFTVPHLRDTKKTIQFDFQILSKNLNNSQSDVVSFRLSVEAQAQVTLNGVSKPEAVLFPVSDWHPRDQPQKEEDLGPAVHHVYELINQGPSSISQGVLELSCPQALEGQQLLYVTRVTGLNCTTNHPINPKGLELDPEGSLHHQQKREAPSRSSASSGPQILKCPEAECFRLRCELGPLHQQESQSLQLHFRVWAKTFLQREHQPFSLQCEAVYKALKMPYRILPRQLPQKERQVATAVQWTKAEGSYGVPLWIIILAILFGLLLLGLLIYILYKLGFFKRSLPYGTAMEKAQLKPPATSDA
T3 sequence (P05556 21-798 limits assumed, chain 2 of 2): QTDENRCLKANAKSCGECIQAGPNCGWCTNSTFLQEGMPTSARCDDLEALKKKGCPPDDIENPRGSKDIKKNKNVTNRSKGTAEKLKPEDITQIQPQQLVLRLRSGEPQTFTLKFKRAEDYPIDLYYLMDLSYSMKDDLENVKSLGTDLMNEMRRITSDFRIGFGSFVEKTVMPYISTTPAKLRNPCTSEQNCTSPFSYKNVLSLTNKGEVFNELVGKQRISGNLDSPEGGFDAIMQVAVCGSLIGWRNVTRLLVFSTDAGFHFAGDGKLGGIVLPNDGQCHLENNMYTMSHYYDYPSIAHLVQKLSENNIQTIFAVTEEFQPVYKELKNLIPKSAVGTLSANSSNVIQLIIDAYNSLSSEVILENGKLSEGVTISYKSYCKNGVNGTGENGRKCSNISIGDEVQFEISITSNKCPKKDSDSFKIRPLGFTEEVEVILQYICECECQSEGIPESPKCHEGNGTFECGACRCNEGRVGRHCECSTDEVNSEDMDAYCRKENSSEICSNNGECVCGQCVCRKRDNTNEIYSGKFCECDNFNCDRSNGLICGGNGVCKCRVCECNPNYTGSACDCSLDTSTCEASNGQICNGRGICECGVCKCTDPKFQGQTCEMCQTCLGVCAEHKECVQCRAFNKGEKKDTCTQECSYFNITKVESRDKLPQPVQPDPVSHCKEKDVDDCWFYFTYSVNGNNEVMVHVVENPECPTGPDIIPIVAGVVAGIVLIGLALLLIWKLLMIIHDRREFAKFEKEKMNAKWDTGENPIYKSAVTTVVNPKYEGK
Description: Bound FITC was measured using flow cytometry.
as §1

[5] = target: T3, integrin α5β1 on K562 cells and U937 …; test: flow cytometry, FITC-sPLA2-IIA (10 µg/ml) on K562 cells
Description: Bound FITC was measured using flow cytometry. Data are shown as means±SEM of MFI of three independent experiments. c. […] Data are shown as means±SEM of % adhesion of three independent experiments. d-f. […] Data are shown as means±SEM of MFI of three independent experiments. […] Data are shown as means±SEM of MFI of three independent experiments, j-l. […] Data are shown as means±SEM of MFI of three independent experiments.

control GST = target: T4, control GST (UniProt P08515 1-218 = GST); test: ELISA-type: GST-tagged protein on immobilized sPLA2-IIA, anti-GST-HRP
T4 construct: Control protein
T4 sequence (P08515 whole entry): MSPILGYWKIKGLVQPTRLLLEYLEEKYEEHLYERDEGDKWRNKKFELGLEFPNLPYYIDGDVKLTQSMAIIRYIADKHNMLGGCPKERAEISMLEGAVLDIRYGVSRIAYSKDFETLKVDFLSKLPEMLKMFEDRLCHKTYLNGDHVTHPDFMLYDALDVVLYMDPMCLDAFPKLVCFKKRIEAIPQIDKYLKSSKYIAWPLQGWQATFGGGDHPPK
Description: Remaining protein binding sites were blocked by incubating with PBS/0.1% BSA for 30 min at room temperature. After washing with PBS, S2 peptides were added to the wells and incubated in PBS for 2 h at room temperature.

[6] = target: T2, integrin αvβ3 on the cell surface of …; test: flow cytometry, FITC-labeled ADAM15 on U937 and αvβ3-K562 cells, with sPLA2-IIA (20 µg/ml)
Excerpt: Data are shown as means (MFI)±SEM of three independent experiments.
as §1

Binder: B1
binding result [1]: binds
binding result [2]: binds

Binder: B2
binding result [3]: no binding

Binder: B3
binding result [4]: binds

Binder: B4
binding result [5]: binds
binding result (control GST): no binding

Binder: B5
binding result [6]: binds
